Assay results published in patent US20100291638.

Legend:
Tth DNA polymerase = Tth DNA polymerase (UniProt P52028); conditions: reverse transcription, manufacturer's conditions
[1] = biological target: MMLV reverse transcriptase (Moloney murine leukemia virus) (UniProt P03355); conditions: reverse transcription, manufacturer's conditions
[2] = tested on: T1, DNA polymerase 3173 (uncultured hot spring virus (Octopus Spring)); conditions: reverse transcription, 60 C 20 min, MgCl2 and MnCl2
T1 sequence: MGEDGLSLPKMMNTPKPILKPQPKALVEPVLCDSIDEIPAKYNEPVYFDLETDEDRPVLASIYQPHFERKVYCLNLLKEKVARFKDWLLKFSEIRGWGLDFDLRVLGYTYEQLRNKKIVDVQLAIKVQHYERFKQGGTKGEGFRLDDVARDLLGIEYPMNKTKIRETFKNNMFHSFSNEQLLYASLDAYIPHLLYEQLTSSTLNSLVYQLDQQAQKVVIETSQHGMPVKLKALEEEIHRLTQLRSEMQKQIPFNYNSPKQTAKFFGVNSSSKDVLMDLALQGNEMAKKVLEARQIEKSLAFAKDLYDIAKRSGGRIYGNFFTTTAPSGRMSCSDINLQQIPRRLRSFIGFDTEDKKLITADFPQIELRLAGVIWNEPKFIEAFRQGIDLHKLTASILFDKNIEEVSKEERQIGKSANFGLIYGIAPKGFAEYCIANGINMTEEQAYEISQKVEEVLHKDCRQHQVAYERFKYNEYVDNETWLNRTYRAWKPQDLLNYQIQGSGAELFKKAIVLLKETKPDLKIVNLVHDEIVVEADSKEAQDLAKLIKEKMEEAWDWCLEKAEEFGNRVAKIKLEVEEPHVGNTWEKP

[3] = tested on: T1, DNA polymerase 3173 (uncultured hot spring virus (Octopus Spring)); conditions: Km for primed M13 DNA; 70 C; dNTPs in excess

Sequence of UniProt P52028 (P52028 whole entry): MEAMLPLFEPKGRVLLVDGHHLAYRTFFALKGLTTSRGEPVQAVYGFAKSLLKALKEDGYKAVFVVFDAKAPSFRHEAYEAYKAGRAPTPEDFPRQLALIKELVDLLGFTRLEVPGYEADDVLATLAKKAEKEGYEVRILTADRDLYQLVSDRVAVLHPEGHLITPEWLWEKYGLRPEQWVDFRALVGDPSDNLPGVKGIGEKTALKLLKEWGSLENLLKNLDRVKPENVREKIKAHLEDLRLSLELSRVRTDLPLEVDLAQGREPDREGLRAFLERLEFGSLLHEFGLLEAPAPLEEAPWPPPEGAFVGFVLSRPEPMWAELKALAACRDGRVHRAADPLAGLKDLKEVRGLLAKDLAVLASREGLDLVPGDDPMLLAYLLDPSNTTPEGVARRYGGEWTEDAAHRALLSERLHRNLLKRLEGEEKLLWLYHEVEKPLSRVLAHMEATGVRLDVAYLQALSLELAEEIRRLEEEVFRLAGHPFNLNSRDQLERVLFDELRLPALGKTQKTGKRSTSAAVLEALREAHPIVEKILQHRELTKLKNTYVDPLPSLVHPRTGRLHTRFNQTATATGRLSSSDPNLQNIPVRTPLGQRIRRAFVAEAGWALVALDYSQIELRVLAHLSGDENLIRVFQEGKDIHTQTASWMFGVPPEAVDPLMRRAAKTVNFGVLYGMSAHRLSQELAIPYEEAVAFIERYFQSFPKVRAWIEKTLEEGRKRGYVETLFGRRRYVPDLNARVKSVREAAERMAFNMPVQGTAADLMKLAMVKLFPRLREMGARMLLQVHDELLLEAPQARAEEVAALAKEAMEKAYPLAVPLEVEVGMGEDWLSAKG

Substance: poly rA:oligo dT
- activity (Tth DNA polymerase): 0.802 nmol dTTP
- activity [1]: 1.11 nmol dTTP
- activity [2]: 1.04 nmol dTTP

Substance: primed single-stranded M13 DNA
- K half [3]: 5.3 nM
